For the assay, the target named is poly(A)-binding protein (PABP), P11940. In words: co-immunoprecipitation with anti-FLAG antibody, Western blot quantified with ImageJ. The note with it: chain shown with the change, HeLa cells, parent: est. 1.0, read off a plot. Background: In western blotting, separated proteins are transferred to a membrane and probed.
Chain of poly(A)-binding protein (PABP), P11940 (P11940 whole entry): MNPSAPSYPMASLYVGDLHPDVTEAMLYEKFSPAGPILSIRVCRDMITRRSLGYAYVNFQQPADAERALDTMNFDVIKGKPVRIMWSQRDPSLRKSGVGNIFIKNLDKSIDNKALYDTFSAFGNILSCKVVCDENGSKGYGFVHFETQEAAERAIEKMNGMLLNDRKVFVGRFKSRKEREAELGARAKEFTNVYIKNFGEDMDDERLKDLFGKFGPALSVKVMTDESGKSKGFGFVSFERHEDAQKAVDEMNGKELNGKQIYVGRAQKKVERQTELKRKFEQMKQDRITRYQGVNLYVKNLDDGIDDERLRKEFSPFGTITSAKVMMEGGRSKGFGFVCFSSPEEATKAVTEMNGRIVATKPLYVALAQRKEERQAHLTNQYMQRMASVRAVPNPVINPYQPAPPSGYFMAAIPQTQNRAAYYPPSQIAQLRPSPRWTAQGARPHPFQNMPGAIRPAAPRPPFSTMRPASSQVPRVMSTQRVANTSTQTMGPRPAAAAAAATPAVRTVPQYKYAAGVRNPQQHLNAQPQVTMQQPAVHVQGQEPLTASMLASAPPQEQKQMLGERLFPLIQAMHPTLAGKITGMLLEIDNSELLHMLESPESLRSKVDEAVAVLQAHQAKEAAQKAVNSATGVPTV

B1: FLAG-HA-SBP (FHS)-tagged full-length TNRC6A, wild type, Q8NDV7-2 S1616D; S1691D (protein)
chain: MDADSASSSESERNITIMASGNTGGEKDGLRNSTGLGSQNKFVVGSSSNNVGHGSSTGPWGFSHGAIISTCQVSVDAPESKSESSNNRMNAWGTVSSSSNGGLNPSTLNSASNHGAWPVLENNGLALKGPVGSGSSGINIQCSTIGQMPNNQSINSKVSGGSTHGTWGSLQETCESEVSGTQKVSFSGQPQNITTEMTGPNNTTNFMTSSLPNSGSVQNNELPSSNTGAWRVSTMNHPQMQAPSGMNGTSLSHLSNGESKSGGSYGTTWGAYGSNYSGDKCSGPNGQANGDTVNATLMQPGVNGPMGTNFQVNTNKGGGVWESGAANSQSTSWGSGNGANSGGSRRGWGTPAQNTGTNLPSVEWNKLPSNQHSNDSANGNGKTFTNGWKSTEEEDQGSATSQTNEQSSVWAKTGGTVESDGSTESTGRLEEKGTGESQSRDRRKIDQHTLLQSIVNRTDLDPRVLSNSGWGQTPIKQNTAWDTETSPRGERKTDNGTEAWGSSATQTFNSGACIDKTSPNGNDTSSVSGWGDPKPALRWGDSKGSNCQGGWEDDSAATGMVKSNQWGNCKEEKAAWNDSQKNKQGWGDGQKSSQGWSVSASDNWGETSRNNHWGEANKKSSSGGSDSDRSVSGWNELGKTSSFTWGNNINPNNSSGWDESSKPTPSQGWGDPPKSNQSLGWGDSSKPVSSPDWNKQQDIVGSWGIPPATGKPPGTGWLGGPIPAPAKEEEPTGWEEPSPESIRRKMEIDDGTSAWGDPSKYNYKNVNMWNKNVPNGNSRSDQQAQVHQLLTPASAISNKEASSGSGWGEPWGEPSTPATTVDNGTSAWGKPIDSGPSWGEPIAAASSTSTWGSSSVGPQALSKSGPKSMQDGWCGDDMPLPGNRPTGWEEEEDVEIGMWNSNSSQELNSSLNWPPYTKKMSSKGLSGKKRRRERGMMKGGNKQEEAWINPFVKQFSNISFSRDSPEENVQSNKMDLSGGMLQDKRMEIDKHSLNIGDYNRTVGKGPGSRPQISKESSMERNPYFDKDGIVADESQNMQFMSSQSMKLPPSNSALPNQALGSIAGLGMQNLNSVRQNGNPSMFGVGNTAAQPRGMQQPPAQPLSSSQPNLRAQVPPPLLSPQVPVSLLKYAPNNGGLNPLFGPQQVAMLNQLSQLNQLSQISQLQRLLAQQQRAQSQRSVPSGNRPQQDQQGRPLSVQQQMMQQSRQLDPNLLVKQQTPPSQQQPLHQPAMKSFLDNVMPHTTPELQKGPSPINAFSNFPIGLNSNLNVNMDMNSIKEPQSRLRKWTTVDSISVNTSLDQNSSKHGAISSGFRLEESPFVPYDFMNSSTSPASPPGSIGDGWPRAKSPNGSSSVNWPPEFRPGEPWKGYPNIDPETDPYVTPGSVINNLSINTVREVDHLRDRNSGSSSSLNTTLPSTSAWSSIRASNYNVPLSSTAQSTSARNSDSKLTWSPGSVTNTSLAHELWKVPLPPKNITAPSRPPPGLTGQKPPLSTWDNSPLRIGGGWGNSDARYTPGSSWGESSSGRITNWLVLKNLTPQIDGSTLRTLCMQHGPLITFHLNLPHGNALVRYSSKEEVVKAQKSLHMCVLGNTTILAEFASEEEISRFFAQSQSLTPDPGWQSLGSSQSRLGSLDCSHSFSSRTDLNHWNGAGLSGTNCGDLHGTSLWGTPHYSTSLWGPPSSSDPRGISSPDPINAFLSVDHLGGGGESM
As for B1, the response (two independent experiments) turned out to be 0.89.

B2: FLAG-HA-SBP (FHS)-tagged full-length TNRC6A, wild type, Q8NDV7-2 S1332D; S1346D (protein)
chain: MDADSASSSESERNITIMASGNTGGEKDGLRNSTGLGSQNKFVVGSSSNNVGHGSSTGPWGFSHGAIISTCQVSVDAPESKSESSNNRMNAWGTVSSSSNGGLNPSTLNSASNHGAWPVLENNGLALKGPVGSGSSGINIQCSTIGQMPNNQSINSKVSGGSTHGTWGSLQETCESEVSGTQKVSFSGQPQNITTEMTGPNNTTNFMTSSLPNSGSVQNNELPSSNTGAWRVSTMNHPQMQAPSGMNGTSLSHLSNGESKSGGSYGTTWGAYGSNYSGDKCSGPNGQANGDTVNATLMQPGVNGPMGTNFQVNTNKGGGVWESGAANSQSTSWGSGNGANSGGSRRGWGTPAQNTGTNLPSVEWNKLPSNQHSNDSANGNGKTFTNGWKSTEEEDQGSATSQTNEQSSVWAKTGGTVESDGSTESTGRLEEKGTGESQSRDRRKIDQHTLLQSIVNRTDLDPRVLSNSGWGQTPIKQNTAWDTETSPRGERKTDNGTEAWGSSATQTFNSGACIDKTSPNGNDTSSVSGWGDPKPALRWGDSKGSNCQGGWEDDSAATGMVKSNQWGNCKEEKAAWNDSQKNKQGWGDGQKSSQGWSVSASDNWGETSRNNHWGEANKKSSSGGSDSDRSVSGWNELGKTSSFTWGNNINPNNSSGWDESSKPTPSQGWGDPPKSNQSLGWGDSSKPVSSPDWNKQQDIVGSWGIPPATGKPPGTGWLGGPIPAPAKEEEPTGWEEPSPESIRRKMEIDDGTSAWGDPSKYNYKNVNMWNKNVPNGNSRSDQQAQVHQLLTPASAISNKEASSGSGWGEPWGEPSTPATTVDNGTSAWGKPIDSGPSWGEPIAAASSTSTWGSSSVGPQALSKSGPKSMQDGWCGDDMPLPGNRPTGWEEEEDVEIGMWNSNSSQELNSSLNWPPYTKKMSSKGLSGKKRRRERGMMKGGNKQEEAWINPFVKQFSNISFSRDSPEENVQSNKMDLSGGMLQDKRMEIDKHSLNIGDYNRTVGKGPGSRPQISKESSMERNPYFDKDGIVADESQNMQFMSSQSMKLPPSNSALPNQALGSIAGLGMQNLNSVRQNGNPSMFGVGNTAAQPRGMQQPPAQPLSSSQPNLRAQVPPPLLSPQVPVSLLKYAPNNGGLNPLFGPQQVAMLNQLSQLNQLSQISQLQRLLAQQQRAQSQRSVPSGNRPQQDQQGRPLSVQQQMMQQSRQLDPNLLVKQQTPPSQQQPLHQPAMKSFLDNVMPHTTPELQKGPSPINAFSNFPIGLNSNLNVNMDMNSIKEPQSRLRKWTTVDSISVNTSLDQNSSKHGAISSGFRLEESPFVPYDFMNSSTSPADPPGSIGDGWPRAKDPNGSSSVNWPPEFRPGEPWKGYPNIDPETDPYVTPGSVINNLSINTVREVDHLRDRNSGSSSSLNTTLPSTSAWSSIRASNYNVPLSSTAQSTSARNSDSKLTWSPGSVTNTSLAHELWKVPLPPKNITAPSRPPPGLTGQKPPLSTWDNSPLRIGGGWGNSDARYTPGSSWGESSSGRITNWLVLKNLTPQIDGSTLRTLCMQHGPLITFHLNLPHGNALVRYSSKEEVVKAQKSLHMCVLGNTTILAEFASEEEISRFFAQSQSLTPSPGWQSLGSSQSRLGSLDCSHSFSSRTDLNHWNGAGLSGTNCGDLHGTSLWGTPHYSTSLWGPPSSSDPRGISSPSPINAFLSVDHLGGGGESM
Turning to B2, the response (two independent experiments) was found to be 1.4.

B3: FLAG-HA-SBP (FHS)-tagged TNRC6A-SD-WT, Q8NDV7-2 S1616D; S1691D (protein)
chain: PLHQPAMKSFLDNVMPHTTPELQKGPSPINAFSNFPIGLNSNLNVNMDMNSIKEPQSRLRKWTTVDSISVNTSLDQNSSKHGAISSGFRLEESPFVPYDFMNSSTSPASPPGSIGDGWPRAKSPNGSSSVNWPPEFRPGEPWKGYPNIDPETDPYVTPGSVINNLSINTVREVDHLRDRNSGSSSSLNTTLPSTSAWSSIRASNYNVPLSSTAQSTSARNSDSKLTWSPGSVTNTSLAHELWKVPLPPKNITAPSRPPPGLTGQKPPLSTWDNSPLRIGGGWGNSDARYTPGSSWGESSSGRITNWLVLKNLTPQIDGSTLRTLCMQHGPLITFHLNLPHGNALVRYSSKEEVVKAQKSLHMCVLGNTTILAEFASEEEISRFFAQSQSLTPDPGWQSLGSSQSRLGSLDCSHSFSSRTDLNHWNGAGLSGTNCGDLHGTSLWGTPHYSTSLWGPPSSSDPRGISSPDPINAFLSVDHLGGGGESM
In the case of B3, the response (three independent experiments) is 0.54.

Source of the values: PMC7917804.
